Measured values published in patent US10072073.
Values belong to the molecule of their own block, whether it stands above or below them.

How the values were obtained:
[1] = biological target: human class I histocompatibility antigens (HLA-A,B,C) (human); assay: indirect immunofluorescence flow cytometry on Colo205 cells; mouse IgG at 5 µg/ml [d]
CD55 [2] = biological target: CD55 (UniProt P08174); assay: indirect immunofluorescence flow cytometry on H69 lung tumour cells, mAb 5 µg/ml
CD55 [3] = biological target: CD55 (UniProt P08174); assay: indirect immunofluorescence flow cytometry on AGS gastric tumour cells, mAb 5 µg/ml
CD55 [4] = biological target: CD55 (UniProt P08174); assay: indirect immunofluorescence flow cytometry on MCF7 breast tumour cells, mAb 5 µg/ml
CD55 [5] = biological target: CD55 (UniProt P08174); assay: indirect immunofluorescence flow cytometry on ST16 gastric tumour cells, mAb 5 µg/ml
CD55 [6] = biological target: CD55 (UniProt P08174); assay: indirect immunofluorescence flow cytometry on MKN45 gastric tumour cells, mAb 5 µg/ml
CD55 [7] = biological target: CD55 (UniProt P08174); assay: indirect immunofluorescence flow cytometry on OAW42 ovarian tumour cells, mAb 5 µg/ml
CD55 [8] = biological target: CD55 (UniProt P08174); assay: indirect immunofluorescence flow cytometry on OVCAR3 ovarian tumour cells, mAb 5 µg/ml
CD55 [9] = biological target: CD55 (UniProt P08174); assay: indirect immunofluorescence flow cytometry on OVCAR4 ovarian tumour cells, mAb 5 µg/ml
CD55 [10] = biological target: CD55 (UniProt P08174); assay: indirect immunofluorescence flow cytometry on C170 colorectal tumour cells, mAb 5 µg/ml
CD55 [11] = biological target: CD55 (UniProt P08174); assay: indirect immunofluorescence flow cytometry on HT29 colorectal tumour cells, mAb 5 µg/ml
CD55 [12] = biological target: CD55 (UniProt P08174); assay: indirect immunofluorescence flow cytometry on OVCA433 ovarian tumour cells, mAb 5 µg/ml
CD55 [13] = biological target: CD55 (UniProt P08174); assay: indirect immunofluorescence flow cytometry on ASPC1 pancreatic tumour cells, mAb 5 µg/ml
CD55 [14] = biological target: CD55 (UniProt P08174); assay: indirect immunofluorescence flow cytometry on Panc1 pancreatic tumour cells, mAb 5 µg/ml
CD55 [15] = biological target: CD55 (UniProt P08174); assay: indirect immunofluorescence flow cytometry on MB-MDA-231 breast tumour cells, mAb 5 µg/ml
CD55 [16] = biological target: CD55 (UniProt P08174); assay: indirect immunofluorescence flow cytometry on Colo201 colorectal tumour cells, mAb 5 µg/ml
CD55 [17] = biological target: CD55 (UniProt P08174); assay: indirect immunofluorescence flow cytometry on Colo205 colorectal tumour cells, mAb 5 µg/ml
[18] = biological target: human class I histocompatibility antigens (HLA-A,B,C) (human); assay: indirect immunofluorescence flow cytometry on H69 lung tumour cells, mAb 1 µg/ml
[19] = biological target: human class I histocompatibility antigens (HLA-A,B,C) (human); assay: indirect immunofluorescence flow cytometry on AGS gastric tumour cells, mAb 1 µg/ml
[20] = biological target: human class I histocompatibility antigens (HLA-A,B,C) (human); assay: indirect immunofluorescence flow cytometry on MCF7 breast tumour cells, mAb 1 µg/ml
[21] = biological target: human class I histocompatibility antigens (HLA-A,B,C) (human); assay: indirect immunofluorescence flow cytometry on ST16 gastric tumour cells, mAb 1 µg/ml
[22] = biological target: human class I histocompatibility antigens (HLA-A,B,C) (human); assay: indirect immunofluorescence flow cytometry on DU4475 breast tumour cells, mAb 1 µg/ml
[23] = biological target: human class I histocompatibility antigens (HLA-A,B,C) (human); assay: indirect immunofluorescence flow cytometry on MKN45 gastric tumour cells, mAb 1 µg/ml
[24] = biological target: human class I histocompatibility antigens (HLA-A,B,C) (human); assay: indirect immunofluorescence flow cytometry on OAW42 ovarian tumour cells, mAb 1 µg/ml
[25] = biological target: human class I histocompatibility antigens (HLA-A,B,C) (human); assay: indirect immunofluorescence flow cytometry on OVCAR3 ovarian tumour cells, mAb 1 µg/ml
[26] = biological target: human class I histocompatibility antigens (HLA-A,B,C) (human); assay: indirect immunofluorescence flow cytometry on OVCAR4 ovarian tumour cells, mAb 1 µg/ml
[27] = biological target: human class I histocompatibility antigens (HLA-A,B,C) (human); assay: indirect immunofluorescence flow cytometry on C170 colorectal tumour cells, mAb 1 µg/ml
[28] = biological target: human class I histocompatibility antigens (HLA-A,B,C) (human); assay: indirect immunofluorescence flow cytometry on HT29 colorectal tumour cells, mAb 1 µg/ml
[29] = biological target: human class I histocompatibility antigens (HLA-A,B,C) (human); assay: indirect immunofluorescence flow cytometry on OVCA433 ovarian tumour cells, mAb 1 µg/ml
[30] = biological target: human class I histocompatibility antigens (HLA-A,B,C) (human); assay: indirect immunofluorescence flow cytometry on ASPC1 pancreatic tumour cells, mAb 1 µg/ml
[31] = biological target: human class I histocompatibility antigens (HLA-A,B,C) (human); assay: indirect immunofluorescence flow cytometry on Panc1 pancreatic tumour cells, mAb 1 µg/ml
[32] = biological target: human class I histocompatibility antigens (HLA-A,B,C) (human); assay: indirect immunofluorescence flow cytometry on MB-MDA-231 breast tumour cells, mAb 1 µg/ml
[33] = biological target: human class I histocompatibility antigens (HLA-A,B,C) (human); assay: indirect immunofluorescence flow cytometry on Colo201 colorectal tumour cells, mAb 1 µg/ml
[34] = biological target: human class I histocompatibility antigens (HLA-A,B,C) (human); assay: indirect immunofluorescence flow cytometry on Colo205 colorectal tumour cells, mAb 1 µg/ml
[35] = biological target: human class I histocompatibility antigens (HLA-A,B,C) (human); assay: indirect immunofluorescence flow cytometry on Colo205 cells; W6/32 at 5 µg/ml [c]
Polyvalent Le^a-HSA = assay: SPR (Biacore X), polyvalent Le^a-HSA coupled to CM5 chip, mAb in flow

Chain of UniProt P08174 (P08174 35-353 limits assumed): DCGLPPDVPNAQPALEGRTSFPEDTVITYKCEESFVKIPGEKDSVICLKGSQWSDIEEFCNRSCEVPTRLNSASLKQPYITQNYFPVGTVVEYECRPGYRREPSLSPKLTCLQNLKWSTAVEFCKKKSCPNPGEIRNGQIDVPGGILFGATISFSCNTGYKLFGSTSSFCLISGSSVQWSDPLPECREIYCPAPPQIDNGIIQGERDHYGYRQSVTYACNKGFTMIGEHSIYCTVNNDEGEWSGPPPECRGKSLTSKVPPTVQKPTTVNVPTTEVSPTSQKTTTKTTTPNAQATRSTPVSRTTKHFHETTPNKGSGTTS

Molecule: 791T/36 (antibody)
Gm value (CD55 [2]): 28.1 Gm
Gm value (CD55 [3]): 1880 Gm
Gm value (CD55 [4]): 461 Gm
Gm value (CD55 [5]): 903 Gm
Gm value (CD55 [6]): 231 Gm
Gm value (CD55 [7]): 401 Gm
Gm value (CD55 [8]): 412 Gm
Gm value (CD55 [9]): 328 Gm
Gm value (CD55 [10]): 858 Gm
Gm value (CD55 [11]): 916 Gm
Gm value (CD55 [12]): 686 Gm
Gm value (CD55 [13]): 7010 Gm
Gm value (CD55 [14]): 472 Gm
Gm value (CD55 [15]): 1160 Gm
Gm value (CD55 [16]): 22.3 Gm
Gm value (CD55 [17]): 44.4 Gm

Molecule: W6/32 (antibody)
Gm value [18]: 109 Gm
Gm value [19]: 1560 Gm
Gm value [20]: 515 Gm
Gm value [21]: 33.5 Gm
Gm value [22]: 1360 Gm
Gm value [23]: 15.4 Gm
Gm value [24]: 318 Gm
Gm value [25]: 633 Gm
Gm value [26]: 16.4 Gm
Gm value [27]: 16.5 Gm
Gm value [28]: 1160 Gm
Gm value [29]: 6790 Gm
Gm value [30]: 1780 Gm
Gm value [31]: 20.1 Gm
Gm value [32]: 758 Gm
Gm value [33]: 603 Gm
Gm value [34]: 1300 Gm
Gm [35]: 2600

B1: FG88.2 mAb (antibody, V domains shown)
VH: EVKLEESGGGLVQPGGSMKLSCAASGFTFSDAWMNWVRQSPEKGLEWVAEIRSKVINPAIYYAESVKERFTILRDDSKSSVYLQMNSLRAEDTGIYYCSRSTMITTRDPSRYFDVWGAGTTVTVSS
VL: DIQMTQSPTSLSASVGETVTITCRTSENIHNFLTWYQQKQGKSPQVLVYNAKTLPDGVPSRFSGSGSGTQYSLKINSLQPEDFGTYYCQHFWSSPWTFGGGTKLEIKR
Kd (Polyvalent Le^a-HSA): 0.63 nM
koff (Polyvalent Le^a-HSA): 0.000118 s⁻¹
kon (Polyvalent Le^a-HSA): 190000 M⁻¹ s⁻¹

Continued, values first:

Gm [1]: 25.4
Molecule: IgG Isotype control (antibody)

Kd (Polyvalent Le^a-HSA): 0.34 nM
koff (Polyvalent Le^a-HSA): 5.8e-05 s⁻¹
kon (Polyvalent Le^a-HSA): 170000 M⁻¹ s⁻¹
B2: FG88.7 mAb (antibody, V domains shown)
VH: EVKLEESGGGLVQPGGSMKLSCVASGFTFSDAWMNWVRQSPEKGLEWVAEIRSKAINPAIYYAESVKGRFTILRDDSKSSVYLQMNSLRAEDTGIYYCSRSTMITTRDPSRYFDVWGAGTTVTVSS
VL: DIQMTQSPTSLSASVGETVTITCRTSENIHNFLTWYQQKQGKSPQVLVYNAKTLPDGVPSRFSGSGSETQYSLKINSLQPEDFGTYYCQHFWSSPWTFGGGTKLEIKR
